In patent US10401365B2, “Inhibition of chemokine CCL7 or receptor CCR3 of same for the treatment and diagnosis of prostate cancer” (Universite Paul Sabatier (Toulouse III), priority 2014, dated 2019):
Where “and” joins values, the source holds several entries; their conditions need not be identical. Identical values can stand only once.

Columns and labels:
[1] = tested on: PC-3 cells; experiment: Boyden chamber migration of PC-3 cells against conditioned medium from mature adipocytes (CM-Ad, 3T3-F442A); type: cell-based, human
Text: The monoclonal antibodies targeted against CCR1 (D063-3 clone 141-2) and CCR3 (D083-3, clone 444-11) are obtained from MBL International (Worburn, Mass., USA). The anti-CCR2 (clone E68) and anti-CCR3 (clone Y31) monoclonal antibodies are obtained from Abcam (Cambridge, Mass., USA). The monoclonal antibodies against CXCR2 (clone 48311), CXCR4 (clone 44716) and CCR1 (clone 53504) are obtained from R&D Systems (Minneapolis, Minn., USA).
The inhibitor targeting the receptor CXCR4, AMD3100 (Rosenkilde, Gerlach et al. 2004) is obtained from Sigman Aldrich and is used at final concentrations of 1, 10, 50 and 100 nM. The inhibitor targeting the receptors CXCR1 and CXCR2, SB225002 (White, Lee et al. 1998)) is obtained from Tocris (Bristol, United Kingdom) and is used at final concentrations of 1, 10 and 100 nm. […]
In order to evaluate the ability of tumor cells to migrate according to the culture medium, Boyden chamber migration tests were conducted using 8 μm porosity Greiner bio-one inserts. […] The migration of the tumor cells is evaluated after 12 hrs of migration at 37° C. and 5% CO2 by 1% toluidine blue staining supplemented with 0.1M borax (Sigma, St Louis, Mo., USA) and quantification of the absorbance (measured at 570 nm).

[2] = tested on: PC-3 cells; experiment: Migration of PC-3 cells against serum-free medium with recombinant CCL7; type: cell-based, human; details: dose-dependent, 1-100 ng/ml
Experimental: (§1) In order to evaluate the ability of tumor cells to migrate according to the culture medium, Boyden chamber migration tests were conducted using 8 μm porosity Greiner bio-one inserts. In the lower compartment either culture medium with or without serum, or conditioned medium from F442A adipocytes (CM-Ad), human periprostatic adipose tissue (CM-PPAT), mouse perigonadal adipose tissue (CM-PGAT), adipocytes or vascular fraction cells (SVF) isolated from PPAT or PGAT is introduced. These conditioned media may be pretreated for 30 minutes by adding antibodies blocking the chemokine CCL7. Experiments with the recombinant chemokine CCL7 were also conducted, in this case the chemokine is added to serum-free culture medium to verify the chemoattractant potential thereof on a cell line. In the upper chamber 1×10^5 cells, previously depleted for 6 hours of serum are deposited in serum-free culture medium. […] The migration of the tumor cells is evaluated after 12 hrs of migration at 37° C. and 5% CO2 by 1% toluidine blue staining supplemented with 0.1M borax (Sigma, St Louis, Mo., USA) and quantification of the absorbance (measured at 570 nm).

[3] = tested on: Du-145 cells; experiment: Migration of Du-145 cells against serum-free medium with recombinant CCL7; type: cell-based, human; details: dose-dependent, 1-100 ng/ml
Experimental: as §1

[4] = tested on: RM1-BM cells; experiment: Migration of RM1-BM cells against serum-free medium with recombinant CCL7; type: cell-based, mouse; details: 100 ng/mL; p<0.01
Experimental: as §1

[5] = tested on: TRAMP-C1P3 cells; experiment: Migration of TRAMP-C1P3 cells against serum-free medium with recombinant CCL7; type: cell-based, mouse; details: 1-100 ng/ml
Experimental: as §1

[6] = tested on: TRAMP-C1P3 cells; experiment: Intraprostatic injection of TRAMP-C1P3 cells in C57BL/6 mice, tumor growth; type: in vivo; details: for tumor size: 2×10^6 cells intraprostatic, n=11, p<0.001 vs shCtrl
Experimental: Male C57BL/6 mice aged 18 weeks on a normal or high-fat diet were anesthetized with isoflurane. A transverse incision was made at the lower part of the abdomen. The muscles of the abdominal wall were incised, and the bladder and the seminal vesicles were released so as to expose the dorsal lobe of the prostate. A suspension of 2×10^6 cells (in 30 μl of PBS) was then carefully injected under the prostate capsule by means of a gauge 30 needle. The incision was closed using 4-0 suture and clips. The animals were then placed in cages and regular monitoring is conducted in order to monitor macroscopically the general condition of the mouse. After 20 days of tumor establishment, the mice are sacrificed, the primary tumor is thus removed, measured and weighed, and an acquisition in white light and GFP is carried out. The tumors are then placed in a paraformaldehyde solution (4%) and included in paraffin.

[7] = tested on: TRAMP-C1P3 cells; experiment: Migration of shRNA-transfected TRAMP-C1P3 lines against CM-Ad or adipose tissue conditioned medium; type: cell-based, mouse
Experimental: In order to evaluate the ability of tumor cells to migrate according to the culture medium, Boyden chamber migration tests were conducted using 8 μm porosity Greiner bio-one inserts. In the lower compartment either culture medium with or without serum, or conditioned medium from F442A adipocytes (CM-Ad), human periprostatic adipose tissue (CM-PPAT), mouse perigonadal adipose tissue (CM-PGAT), adipocytes or vascular fraction cells (SVF) isolated from PPAT or PGAT is introduced. These conditioned media may be pretreated for 30 minutes by adding antibodies blocking the chemokine CCL7. Experiments with the recombinant chemokine CCL7 were also conducted, in this case the chemokine is added to serum-free culture medium to verify the chemoattractant potential thereof on a cell line. In the upper chamber 1×10^5 cells, previously depleted for 6 hours of serum are deposited in serum-free culture medium. For the migration tests in the presence of blocking antibodies specific for CCR1 or CCR3 or inhibitors of CCR1/CCR3, CCR2, CXCR1/CXCR2 and CXCR4, the tumor cells are previously incubated in a tube with the blocking antibody or the inhibitor for 30 min at 37° C. The migration of the tumor cells is evaluated after 12 hrs of migration at 37° C. and 5% CO2 by 1% toluidine blue staining supplemented with 0.1M borax (Sigma, St Louis, Mo., USA) and quantification of the absorbance (measured at 570 nm).
(§2) The nucleotides targeting the sequence of CCR3 are shown in upper case, whereas the sequence responsible for the hairpin structure and the sequences required for directional cloning are represented in lower case letter. The lentiviral vector LVTHM® is a lentiviral vector (LV) coding for the shRNA CCR3 sequences under the control of the H1 promoter also expressing GFP. The TRAMP-C1P3 cells were then transfected in the presence of m4, m5 or m6-LVTHM for 24 hours at a multiplicity of infection (MOI) of 1:10. The transfected population is selected by GFP expression (cell sorting). These cells were then analyzed by flow cytometry to validate the loss of expression of the CCR3 gene. The control used is the pLVTHM plasmid which expresses an ineffective shRNA sequence.

[8] = tested on: receptor CCR3; experiment: Expression of receptor CCR3 in shRNA-transfected TRAMP-C1P3 cells; type: cell-based, mouse; details: stable shRNA, lentiviral
Experimental: The tumor cells (from prostate, breast, colon, pancreas, or melanoma) were washed three times in FACS buffer (PBS supplemented with 0.5% BSA and 2% FCS) and fixed with a 3.7% paraformaldehyde solution for 20 min at 4° C. The tumor cells were suspended with anti-CXCR4 (10 μg/ml), anti-CXCR1 (10 μg/ml), anti-CXCR2 (1:25), anti-CCR1 (10 μg/ml), anti-CCR2 (20 μg/ml), anti-CCR3 (10 μg/ml) antibodies or isotypical mouse anti-IgG control antibodies at 4° C. for 2 hours. The tumor cells were incubated with a mouse anti-IgG secondary antibody (dilution to 1:200) coupled with Alexa Fluor 488 or coupled with Cyanine 5 (for cells expressing GFP) for 30 minutes at 4° C. Finally, 2×10^4 cells were analyzed by flow cytometry using a FACScan and FACScalibur flow cytometer (analysis on CellQuest™ software (BD-PharMingen)).
In order to inhibit the expression of the receptor CCR3 (NM_009914) in a stable manner in TRAMP-C1P3 cells, an shRNA approach was used enabling stable negative regulation even after several months of culture. The interfering sequences were generated using the Dharmacon “Center siDesign” tool. The sequences of the sense strands of shRNA generated are as follows:
as §2

## c1cc(CN2CCCNCCNCCCNCC2)ccc1CN1CCCNCCNCCCNCC1 [AMD3100]
[1]; 100 nM (maximum dose, only dose effective), p<0.05
  reduction of migration of PC-3 cells against CM-Ad: approximately 20%

## O=C(Nc1ccc([N+](=O)[O-])cc1O)Nc1ccccc1Br [SB225002]
[1]; 50 nM, p<0.01
  inhibition of migration of PC-3 cells induced by CM-Ad: approximately 30%

## recombinant chemokine CCL7: human recombinant chemokine CCL7, ligand of CCR3, added to serum-free medium as chemoattractant
[2]
  dose from which induced migration of PC-3 cells is significant compared to medium alone: 50 ng/mL
[3]
  dose from which induced migration of Du-145 cells is significant compared to medium alone: 50 ng/mL
[4]
  induction of migration of RM1-BM cells with respect to serum-free medium: significant migration
[5]
  dose from which dose-dependent chemotaxis of TRAMP-C1P3 cells is induced: 50 ng/mL

B1: m6CCR3: shRNA targeting the gene CCR3, SEQ ID NO: 3 (nucleic acid)
chain: CGCCGTCCCCGGTGAGAGGTTCCGGAAACTTCAAGAGAGTTTCCGGAACCTCTCACCTTTTTGGAAAT
[6]; histological sections
  invasion of the dorsal lobe of the prostate (histology, HE) compared with C1P3 Ctrl line: much less extensive invasion
[6]; mice on normal-fat diet
  tumor size: 220±30 mm3
[6]; obese mice on high-fat diet
  tumor size: 210±25 mm3 and 200±50 mm3
[7]
  migration of shCCR3 TRAMP-C1P3 lines against CM-Ad with respect to control line: significant reduction
[7]; ND AT-mu-PG
  migration of shCCR3 TRAMP-C1P3 line against conditioned medium of ND AT-mu-PG with respect to control line: reduction in the migration is also detected
[7]; m6CCR3 line, unlike shCtrl line
  increase in migration in presence of HFD AT-mu-PG: not significant
[8]
  expression of receptor CCR3 in TRAMP-C1P3 line with respect to control line (shCtrl): significant reduction

B2: m5CCR3: shRNA targeting the gene CCR3, SEQ ID NO: 2 (nucleic acid)
chain: CGCGTCCCCGACCACACCCTATGAATATTTCAAGAGAATATTCATAGGGTGTGGTCTTTTTGGAAAT
[7]
  migration of shCCR3 TRAMP-C1P3 lines against CM-Ad with respect to control line: significant reduction
[8]
  expression of receptor CCR3 in TRAMP-C1P3 line with respect to control line (shCtrl): significant reduction

B3: m4CCR3: shRNA targeting the gene CCR3, SEQ ID NO: 1 (nucleic acid)
chain: CGCGTCCCCAGACCACACCCTATGAATATTCAAGAGATATTCATAGGGTGTGGTCTTTTTTGGAAAT
[7]
  migration of shCCR3 TRAMP-C1P3 lines against CM-Ad with respect to control line: significant reduction
[8]
  expression of receptor CCR3 in TRAMP-C1P3 line with respect to control line (shCtrl): significant reduction
